Measured values as given in patent US20170157245A1, “TREATMENT OF GASTRIC CANCER” (OncoMed Pharmaceutlcals, Inc., priority 2014, published 2017).

B1: demcizumab: anti-DLL4 antibody, demcizumab (also known as OMP-21M18); heavy chain variable region SEQ ID NO:9 (antibody, chains of the INN, looked up, V domains shown)
VH: QVQLVQSGAEVKKPGASVKISCKASGYSFTAYYIHWVKQAPGQGLEWIGYISSYNGATNYNQKFKGRVTFTTDTSTSTAYMELRSLRSDDTAVYYCARDYDYDVGMDYWGQGTLVTVSS
VL: DIVMTQSPDSLAVSLGERATISCRASESVDNYGISFMKWFQQKPGQPPKLLIYAASNQGSGVPDRFSGSGSGTDFTLTISSLQAEDVAVYYCQQSKEVPWTFGGGTKVEIK
B2: 219R45-MB-21R83: anti-hVEGF/anti-hDLL4 bispecific antibody; heavy chains SEQ ID NO:7 and SEQ ID NO:62, two light chains SEQ ID NO:8 (antibody, chains of the INN, looked up, V domains shown)
VH: QVQLVQSGAEVKKPGASVKISCKASGYSFTAYYIHWVKQAPGQGLEWIGYISNYNRATNYNQKFKGRVTFTTDTSTSTAYMELRSLRSDDTAVYYCARDYDYDVGMDYWGQGTLVTVSS
VL: DIVMTQSPDSLAVSLGERATISCRASESVDNYGISFMKWFQQKPGQPPKLLIYAASNQGSGVPDRFSGSGSGTDFTLTISSLQAEDVAVYYCQQSKEVPWTFGGGTKVEIK
VH2: QVQLVQSGAEVKKPGASVKVSCKASGYTFTNYWMHWVRQAPGQGLEWMGDINPSNGRTSYKEKFKRRVTLSVDKSSSTAYMELSSLRSEDTAVYFCTIHYDDKYYPLMDYWGQGTLVTVSS
VL2: DIVMTQSPDSLAVSLGERATISCRASESVDNYGISFMKWFQQKPGQPPKLLIYAASNQGSGVPDRFSGSGSGTDFTLTISSLQAEDVAVYYCQQSKEVPWTFGGGTKVEIK

Assays:
xenograft tumor models = details: Hoey et al., 2009, U.S. Pat. No. 7,750,124; cited from earlier work
[1] = tested on: OMP-STM1 gastric tumor xenografts; assay: Inhibition of OMP-STM1 gastric tumor growth in vivo; details: subcutaneous xenograft in NOD/SCID mice, 3 mg/kg weekly intraperitoneally for 4 weeks, given plus anti-mVEGF/anti-mDLL4 bispecific antibody, compared with control, anti-DLL4 and anti-VEGF antibodies
Procedure: FIG. 1. […] OMP-STM1 gastric tumor cells were injected subcutaneously into NOD/SCID mice. Mice were treated with control antibody (-[…]-), anti-hDLL4 antibody 21M18 (demcizumab) plus anti-mDLL4 antibody (-▪-), anti-VEGF antibody bevacizumab plus anti-mVEGF antibody (-⋄-), or anti-VEGF/anti-DLL4 bispecific antibody 219R45-MB-21M83 (305B83) plus anti-mDLL4/anti-mVEGF antibody (-▾-). Data is shown as tumor volume […] over days post-treatment. Antibodies were administered intraperitoneally at a dose of 3 mg/kg once a week. * indicates p<0.05 vs control antibody as assessed by two-way ANOVA.
Single cell suspensions of OMP-STM1 gastric tumor xenografts (50,000 cells) were injected subcutaneously into the flanks of 6-8 week old NOD/SCID mice. Tumors were allowed to grow for 34 days until they reached an average volume of 110 mm^3. The mice were randomized (n=8 per group) and treated with anti-hDLL4 antibody 21M18 (demcizumab) plus anti-mDLL4, anti-hVEGF antibody bevacizumab plus anti-mVEGF, anti-hVEGF/anti-hDLL4 bispecific antibody 219R45-MB-21R83 (305B83) plus an anti-mVEGF/anti-mDLL4 bispecific antibody, or control antibody. Antibodies were dosed at 3 mg/kg weekly by intraperitoneal injection for 4 weeks. Tumor growth was monitored and tumor volumes were measured with electronic calipers at the indicated time points. Data are expressed as mean±S.E.M.

Molecule	frequency of cancer stem cells (xenograft tumor models)	tumor growth inhibition (xenograft tumor models)	inhibition of OMP-STM1 gastric tumor growth (tumor volume) ([1]; listed as 219R45-MB-21M83, 3 mg/kg)	inhibition of OMP-STM1 gastric tumor growth (tumor volume) ([1]; listed as bispecific anti-VEGF/anti-DLL4 antibody, 3 mg/kg)
B1	reduce the frequency of cancer stem cells	inhibit tumor growth		
B2			Inhibition of gastric tumor growth in vivo	greater inhibition of OMP-STM1 gastric tumor growth than either anti-DLL4 antibodies alone or anti-VEGF antibodies alone
